The RNAGym collection of RNA variant scans (doi:10.1093/molbev/msab373)

B1: Azoarcus group I ribozyme (parent)
chain: GUGCCUUGCGCCGGGAAACCACGCAAGGGAUGGUGUCAAAUUCGGCGAAACCUAAGCGCCCGCCCGGGCGUAUGGCAACGCCGAGCCAAGCUUCGGCGCCUGCGCCGAUGAAGGUGUAGAGACUAGACGGCACCCACCUAAGGCAAACGCUAUGGUGAAGGCAUAGUCCAGGGAGUGGCGAAAGUCACACAAACCGG

Variants of: B1
Experiment: reverse-splicing fitness (ratio to wild type); higher = more active; in vitro selection; Mg2+ level not given
Outline: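 An in vitro group I ribozyme library with randomized positions was T7-transcribed and gel-purified. In triplicate, 10 pmol RNA in EPPS pH 7.5 was reacted with 50 pmoles of a 30-nt RNA substrate for 1 h at 37 °C across several added MgCl2 levels (1–48 mM), then stopped with EDTA. Products were reverse transcribed from a substrate-complementary primer, PCR-amplified and sequenced (HiSeq 4000). Fitness is a variant's read proportion after selection over that before, normalised to wild type.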

| Variant | reverse-splicing fitness |
| --- | --- |
| A111U A120G A145C C150U C169U U176C | 0.0209 |
| A111U A120C A145G C169G U176C | 0.0229 |
| A111U A120C A145G C169G U176A | 0.019 |
| A111U A120C A145G C169G U176G | 0.00461 |
| A111U A120C A145U C150U U176G | 0.0333 |
| A111U A120C A145U C150U U176C | 0.248 |
| A111U A120C A145U C150U U176A | 0.194 |
| A111U A120C C150U C169G U176C | 0.0132 |
| A111U A120C C150U C169G U176A | 0.0138 |
| A111U A120C C150U C169G U176G | 0.00495 |
| A111U A120C A145G C150U C169G | 0.00992 |
| A111U A120C A145G C150U C169U | 0.148 |
| A111U A120G A145C C169G | 0.193 |
| A111U A120G A145C C169A | 0.11 |
| A111U A120G A145C C169U | 0.151 |
| A111U A120G A145C C150A C169G U176A | 0.0261 |
| A111U A120G A145C C150A C169G U176G | 0.00529 |
| A111U A120G A145C C150A C169G U176C | 0.015 |
| A111U A120G A145G C150A C169G | 0.0343 |
| A111U A120G A145G C150A C169U | 0.028 |
| A111U A120G A145G C150A C169A | 0.0192 |

| Variant | reverse-splicing fitness |
| --- | --- |
| A111U A120C A145U C150A C169G | 0.00755 |
| A111U A120C A145U C150A C169A | 0.00875 |
| A111U A120C A145U C150A C169U | 0.0213 |
| A111U A120G A145U | 0.172 |
| A111U A120G A145C | 0.159 |
| A111U A120G A145G | 0.175 |
| A111U A120G | 0.174 |
| A111U A120C A145U C169G U176A | 0.00823 |
| A111U A120C A145U C169G U176C | 0.00915 |
| A111U A120C A145U C169G U176G | 0.00415 |
| A111U A120C A145U C169A U176G | 0.0044 |
| A111U A120C A145U C169A U176A | 0.00962 |
| A111U A120C A145U C169A U176C | 0.0106 |
| A111U A120C C150G C169U U176A | 0.00853 |
| A111U A120C C150G C169U U176C | 0.0162 |
| A111U A120C C150G C169U U176G | 0.00475 |
| A111U A120G A145U C150G C169G | 0.021 |
| A111U A120G A145U C150G C169A | 0.0162 |
| A111U A120G A145U C150G C169U | 0.0212 |
| A111U A120G A145U C150U U176G | 0.0059 |
| A111U A120G A145U C150U U176C | 0.0388 |

| Variant | reverse-splicing fitness |
| --- | --- |
| A111U A120G A145U C150U U176A | 0.0287 |
| A111U A120G A145C C150A C169A | 0.00967 |
| A111U A120G A145C C150A C169G | 0.0146 |
| A111U A120G A145C C150A C169U | 0.0118 |
| A111U A120G A145U C150G U176C | 0.0142 |
| A111U A120G A145U C150G U176A | 0.00927 |
| A111U A120G A145U C150G U176G | 0.00309 |
| A111U A120G A145G C150U C169A | 0.0845 |
| A111U A120G A145G C150U C169G | 0.166 |
| A111U A120G A145G C150U C169U | 0.133 |
| A111U A120G A145C C150G C169U U176G | 0.00521 |
| A111U A120G A145C C150G C169U U176A | 0.0163 |
| A111U A120G A145C C150G C169U U176C | 0.0146 |
| A111U A120G A145U C169A | 0.117 |
| A111U A120G A145G C150G C169A | 0.0157 |
| A111U A120G A145G C150G C169G | 0.0234 |
| A111U A120G A145G C150G C169U | 0.0237 |
| A111U A120G A145G C150U C169G U176A | 0.0272 |
| A111U A120G A145G C150U C169G U176G | 0.00498 |
| A111U A120G A145G C150U C169G U176C | 0.0424 |
| A111U A120G A145U C150G | 0.02 |

| Variant | reverse-splicing fitness |
| --- | --- |
| A111U A120G A145U C150A | 0.0183 |
| A111U A120G A145U C150U | 0.104 |
| A111U A120C A145U C150A | 0.061 |
| A111U A120C A145U C150G | 0.0712 |
| A111U A120C A145U C150U | 0.401 |
| A111U A120C A145U C150G U176A | 0.0175 |
| A111U A120C A145U C150G U176C | 0.0375 |
| A111U A120C A145U C150G U176G | 0.00473 |
| A111U A120C A145G U176C | 0.306 |
| A111U A120C A145G U176G | 0.0419 |
| A111U A120C A145G U176A | 0.246 |
| A111U A120C C150U C169A U176G | 0.00509 |
| A111U A120C C150U C169A U176A | 0.018 |
| A111U A120C C150U C169A U176C | 0.0126 |
| A111U A120C A145U U176A | 0.259 |
| A111U A120C A145U U176C | 0.3 |
| A111U A120C A145U U176G | 0.0572 |
| A111U A120G A145U C150A C169A U176C | 0.0102 |
| A111U A120G A145U C150A C169A U176A | 0.0123 |
| A111U A120G A145U C150A C169A U176G | 0.00499 |
| A111U A120C A145U C169G | 0.00837 |
